Assay [1] has as its target DC-SIGN (human) (UniProt Q9NNX6). In words: flow cytometry, mature DC day 9, TNFα-matured (endogenous DC-SIGN). Background: A flow cytometer gives signals particle by particle.
Assay [2] has the same target. Briefly: flow cytometry, mature DC day 9, MCM/PGE2-matured (endogenous DC-SIGN).
Assay [3] shares this target. In words: flow cytometry, immature DC day 7 (endogenous DC-SIGN).
Assay [4] shares this target. Briefly: flow cytometry, mature DC day 9, LPS-matured (endogenous DC-SIGN).
For assay [5] the target is unchanged. In words: cell-based or functional assay.

Sequence of DC-SIGN (human) (Q9NNX6 whole entry): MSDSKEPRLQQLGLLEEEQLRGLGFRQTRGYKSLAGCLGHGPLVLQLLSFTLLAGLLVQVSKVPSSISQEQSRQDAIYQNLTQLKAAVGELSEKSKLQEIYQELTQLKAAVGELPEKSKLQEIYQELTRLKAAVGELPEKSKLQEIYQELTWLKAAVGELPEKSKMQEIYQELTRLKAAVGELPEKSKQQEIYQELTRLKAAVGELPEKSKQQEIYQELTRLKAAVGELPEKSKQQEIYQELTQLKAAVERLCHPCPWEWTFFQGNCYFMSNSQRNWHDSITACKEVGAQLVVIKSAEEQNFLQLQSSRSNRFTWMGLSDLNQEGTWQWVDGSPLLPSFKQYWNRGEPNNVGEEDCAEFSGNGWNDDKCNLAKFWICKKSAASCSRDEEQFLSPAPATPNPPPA

Take AZN-D1 (antibody): the mean fluorescence of staining (mean fluorescence) worked out at 420 in the assay with DC-SIGN (human) [1], 445 with DC-SIGN (human) [2], 980 in the assay with DC-SIGN (human) [3] and 489 with DC-SIGN (human) [4].
On to “HxB2 envelope (from UniProt P04578 33-856)”, for which the luciferase activity (unactivated T cells, THP-SIGN cells relative to THP cells) with DC-SIGN (human) [5] stood at 20 fold.
